The target in assay [1] is T1, hAng2.
T1 construct: also called human Ang2
T1 chain: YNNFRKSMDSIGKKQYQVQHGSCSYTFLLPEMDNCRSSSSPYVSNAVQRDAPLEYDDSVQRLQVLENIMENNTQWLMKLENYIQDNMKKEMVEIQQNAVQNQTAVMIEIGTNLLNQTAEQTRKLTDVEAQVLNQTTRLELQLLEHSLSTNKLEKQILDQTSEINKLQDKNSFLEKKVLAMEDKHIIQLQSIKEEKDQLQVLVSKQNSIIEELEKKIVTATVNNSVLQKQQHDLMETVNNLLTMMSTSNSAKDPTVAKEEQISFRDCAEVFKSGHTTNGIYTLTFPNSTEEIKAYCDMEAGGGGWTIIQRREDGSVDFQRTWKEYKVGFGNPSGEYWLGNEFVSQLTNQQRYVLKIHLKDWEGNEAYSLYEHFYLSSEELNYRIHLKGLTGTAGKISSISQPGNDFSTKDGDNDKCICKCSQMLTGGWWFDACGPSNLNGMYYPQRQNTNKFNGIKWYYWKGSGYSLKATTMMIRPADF
As to the kind of experiment: competition ELISA, blocking of hAng2 binding to hTie2.

Assay [2] concerns the target T2, mAng2.
T2 construct: also called mouse Ang2
T2 chain: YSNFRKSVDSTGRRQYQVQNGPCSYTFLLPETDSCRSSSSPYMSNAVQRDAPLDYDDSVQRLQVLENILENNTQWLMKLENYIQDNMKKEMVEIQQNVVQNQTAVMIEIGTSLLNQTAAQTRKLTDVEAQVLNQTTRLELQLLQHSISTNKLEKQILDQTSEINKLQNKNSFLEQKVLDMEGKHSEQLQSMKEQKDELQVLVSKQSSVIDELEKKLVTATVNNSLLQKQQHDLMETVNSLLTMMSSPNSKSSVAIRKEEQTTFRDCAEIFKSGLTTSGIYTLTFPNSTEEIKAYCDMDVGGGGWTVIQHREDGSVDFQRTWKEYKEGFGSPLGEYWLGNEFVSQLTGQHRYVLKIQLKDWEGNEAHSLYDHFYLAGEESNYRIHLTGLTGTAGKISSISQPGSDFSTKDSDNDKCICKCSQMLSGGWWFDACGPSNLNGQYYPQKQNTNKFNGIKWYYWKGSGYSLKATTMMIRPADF
The experiment in a line: competition ELISA, blocking of mAng2 binding to mTie2.

Assay [3] addresses T3, cAng2 (cynomolgus monkey).
T3 construct: also called cyno Ang2
As to the kind of experiment: competition ELISA, blocking of cAng2 binding to cTie2.

For assay [4], the target named is T1, hAng2. As to the kind of experiment: competition ELISA, blocking of hAng2 binding to hTie2.
For assay [5], the target named is T2, mAng2. As to the kind of experiment: competition ELISA, blocking of mAng2 binding to mTie2.
Assay [6] has as its target T3, cAng2. The experiment in a line: competition ELISA, blocking of cAng2 binding to cTie2. The source holds these as a separate data set.
For assay [7], the target named is T4, hAng2.
T4 chain: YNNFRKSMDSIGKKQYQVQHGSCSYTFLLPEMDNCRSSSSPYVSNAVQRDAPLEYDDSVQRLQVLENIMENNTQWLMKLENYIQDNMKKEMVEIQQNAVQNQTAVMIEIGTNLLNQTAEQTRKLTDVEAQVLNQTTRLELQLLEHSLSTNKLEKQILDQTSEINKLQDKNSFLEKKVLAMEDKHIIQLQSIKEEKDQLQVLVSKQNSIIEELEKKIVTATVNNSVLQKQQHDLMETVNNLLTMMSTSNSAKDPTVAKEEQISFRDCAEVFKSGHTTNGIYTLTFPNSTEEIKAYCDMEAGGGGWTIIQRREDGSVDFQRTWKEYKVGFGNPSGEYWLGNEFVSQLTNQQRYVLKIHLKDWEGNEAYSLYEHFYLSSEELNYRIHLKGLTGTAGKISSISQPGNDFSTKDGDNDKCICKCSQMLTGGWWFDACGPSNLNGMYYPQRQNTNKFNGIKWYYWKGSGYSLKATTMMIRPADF
The experiment in a line: cell-based or functional assay.

Assay [8] deals with T4, hAng2. The experiment in a line: competition ELISA, blocking of hAng2 binding to hTie2-Fc.
Assay [9] has as its target T5, mAng2.
T5 construct: may be the same protein as m22 (mouse Ang2-FLD); also called mouse Ang2
T5 chain: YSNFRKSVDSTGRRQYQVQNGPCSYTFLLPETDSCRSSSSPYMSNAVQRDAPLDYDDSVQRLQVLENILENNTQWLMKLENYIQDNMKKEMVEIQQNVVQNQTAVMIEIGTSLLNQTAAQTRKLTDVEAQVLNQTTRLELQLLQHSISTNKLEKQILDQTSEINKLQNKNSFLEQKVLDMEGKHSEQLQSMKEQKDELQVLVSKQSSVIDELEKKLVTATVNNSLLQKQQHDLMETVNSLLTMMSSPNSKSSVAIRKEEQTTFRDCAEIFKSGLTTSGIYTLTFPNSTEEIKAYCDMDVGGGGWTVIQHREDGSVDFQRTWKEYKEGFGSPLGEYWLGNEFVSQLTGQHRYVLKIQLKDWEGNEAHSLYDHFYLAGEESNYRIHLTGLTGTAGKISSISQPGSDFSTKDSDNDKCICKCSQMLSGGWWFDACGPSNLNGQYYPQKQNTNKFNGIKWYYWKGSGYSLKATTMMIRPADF
As to the kind of experiment: competition ELISA, blocking of mAng2 binding to mTie2-Fc.

The target in assay [10] is T6, cAng2 (cynomolgus monkey).
T6 construct: may be the same protein as m21 (cyno Ang2-FLD); also called cyno Ang2
The experiment in a line: competition ELISA, blocking of cAng2 binding to cTie2-Fc.

B1: ANGBII00004 (VHH)
bivalent VHH: EVQLVESGGGLVQAGGSLRLSCAASGFTLDDYAIGWFRQAPGKEREGVSSIRDNDGSTYYADSVKGRFTISSDNDKNTVYLQMNSLKPEDTAVYYCAAVPAGRLRFGEQWYPLYEYDAWGQGTLVTVSSGGGGSGGGSEVQLVESGGGLVQAGGSLRLSCAASGFTLDDYAIGWFRQAPGKEREGVSSIRDNDGSTYYADSVKGRFTISSDNDKNTVYLQMNSLKPEDTAVYYCAAVPAGRLRFGEQWYPLYEYDAWGQGTLVTVSS
notes: homodimeric anti-Ang2 VHH; also called 00027-9gs-00027
Turning to B1, the “IC50 (read off the curve)” value was around 0.01 nM in the assay with hAng2 [1], around 0.03 nM with mAng2 [2] and around 0.04 nM with cAng2 [3].

B2: ANGBII00003 (VHH)
bivalent VHH: EVQLVESGGGLVQVGDSLRLSCAASGRTFSTYLMVGWFRQAPGKEREFAAGIWSSGDTAYADSVRGRFTISRDNAKNTVYLQMNSLKTEDTAVYYCAGSYDGNYYIPGFYKDWGQGTLVTVSSGGGGSGGGSEVQLVESGGGLVQVGDSLRLSCAASGRTFSTYLMVGWFRQAPGKEREFAAGIWSSGDTAYADSVRGRFTISRDNAKNTVYLQMNSLKTEDTAVYYCAGSYDGNYYIPGFYKDWGQGTLVTVSS
notes: homodimeric anti-Ang2 VHH; also called 11B07-9gs-11B07
For B2, the “IC50 (read off the curve)” value with hAng2 [4] was around 0.03 nM; in the assay with mAng2 [5] it was around 0.04 nM; with cAng2 [6], around 0.03 nM.

B3: 00956 (VHH)
VHH: EVQLVESGGGLVQPGGSLRLSCAASGFTLDDYAIGWFRQAPGKEREGVSAIRSSGGSTYYADSVKGRFTISSDNSKNTVYLQMNSLRPEDTAVYYCAAVPAGRLRFGEQWYPLYEYDAWGQGTLVTVSS
With B3, the “IC50 (read off the curve), hAng2 mediated HUVEC survival” value with hAng2 [7] is around 6 nM. Also, the “IC50 (read off the curve)” value with hAng2 [8] was around 1 nM; with mAng2 [9], around 3 nM; in the assay with cAng2 [10] it was around 2 nM.

The values are drawn from patent US20170247475A1 (Boehringer Ingelheim, published 2017).
